From US20120114665A1

Biological target: T1, penta-his-tagged hRANKL (human)
T1 sequence: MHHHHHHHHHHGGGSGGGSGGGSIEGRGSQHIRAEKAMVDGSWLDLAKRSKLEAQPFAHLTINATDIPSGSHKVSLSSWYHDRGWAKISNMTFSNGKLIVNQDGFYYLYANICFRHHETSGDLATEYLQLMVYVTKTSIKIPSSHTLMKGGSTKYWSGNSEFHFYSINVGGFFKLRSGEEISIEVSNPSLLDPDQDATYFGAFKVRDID
Assay: competition ELISA: 150 pM his-hRANKL pre-mixed with antibody, free RANKL detected on hRANK-hFc plate

Chain of Control: Human anti-hRANKL mAb, SEQ ID NO: 2 and 4 of U.S. Pat. No. 7,364,736 (antibody) (VH): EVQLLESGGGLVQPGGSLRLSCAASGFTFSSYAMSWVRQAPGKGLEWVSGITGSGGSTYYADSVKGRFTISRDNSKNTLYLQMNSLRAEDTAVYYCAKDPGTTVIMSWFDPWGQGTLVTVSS
Chain of Control: Human anti-hRANKL mAb, SEQ ID NO: 2 and 4 of U.S. Pat. No. 7,364,736 (antibody) (VL): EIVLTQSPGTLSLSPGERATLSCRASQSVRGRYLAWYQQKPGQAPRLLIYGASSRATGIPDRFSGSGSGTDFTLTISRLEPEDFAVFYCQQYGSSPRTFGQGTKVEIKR

IC50: 0.095 nM
Substance: Control: Human anti-hRANKL mAb, SEQ ID NO: 2 and 4 of U.S. Pat. No. 7,364,736 (antibody)
